Results from the supplement of paper PMC9170038.

Assays:
[1] = test system: MS2 coat protein; assay: apparent KD of MS2 coat protein, switch OFF state (with FMN for OFF switches, without FMN for ON switches); designed switch direction (-1 OFF switch, 1 ON switch): -1; higher = weaker reporter binding; conditions: FMN input: 0 or 200 uM; Eterna round: R93 (includes R88 designs)
How it was run: (§1)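 On-chip transcription from Illumina sequencing clusters produced the designed RNA switches. These were titrated with SNAP-549-labelled MS2 coat protein (twofold steps, 0.7 or 1.5 nM to 3 µM) in 100 mM Tris-HCl pH 7.5, 80 mM KCl, 4 mM MgCl2, with or without constant ligand. The apparent KD given is the per-design median of normalised cluster binding-curve fits.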

[2] = test system: MS2 coat protein; assay: apparent KD of MS2 coat protein, switch ON state; designed switch direction (-1 OFF switch, 1 ON switch): -1; higher = weaker reporter binding; conditions: FMN input: 0 or 200 uM; Eterna round: R93 (includes R88 designs)
How it was run: as §1

Row | Sequence | apparent KD of MS2 coat protein [1] [nM] | apparent KD of MS2 coat protein [2] [nM]
1 | AAAAAACAUGAGGAUCACCCAUGUAAGGAUAUGCUCGAAAGUGCGAAAGCACAAACGAGCAGAAGGUACAAAAA [66%, Wbt, 45] | 51.9 | 34.7
2 | AAAAAACAUGAGGAUCACCCAUGUAAGGAUAUGCUGAAAAACACUGGAAAACAGUGCAGCAGAAGGUACAAAAA [66%, Wbt, 34] | 36.1 | 21.1
3 | AAAAAACAUGAGGAUCACCCAUGUAAGGAUAUGUAAAAUAAAAGAAAAAUAAAGAAAAGCAGAAGGUACAUGGA [JL wbt mod 15] | 91.1 | 54.9
4 | AAAAAACAUGAGGAUCACCCAUGUCAGGAUAUCGAAAAAUAAAUAAAAAUAAAAUAAACGAGAAGGGACAAAAA [May 11] | 44.7 | 39.8
5 | AAAAAACAUGAGGAUCACCCAUGUCAGGAUAUCGAAAGAAAAAAAAAGAAAGAAAAAACGAGAAGGGACAAAAA [Amethyst 29] | 33.1 | 20.1
6 | AAAAAACAUGAGGAUCACCCAUGUGAGGAUAUCCAAAAGUUAAAGAAAAAGACGAAAAGGAGAAGGCGCAAAAA [Fiskers Exclusion D3] | 40.7 | 68.7
7 | AAAAAACAUGAGGAUCACCCAUGUGAGGAUAUCCUAAAAAAAAAAAAAAAAAAAAAAAGGAGAAGGCACAUAAA [EXCLS-II] | 64.8 | 47.6
8 | AAAAAACAUGAGGAUCACCCAUGUGAGGAUAUCCUGGUUGAAAAAAAAAAAACAACCAGGAGAAGGCACAAAAA [EXCL-I] | 57.8 | 45.2
9 | AAAAAACAUGAGGAUCACCCAUGUGAGGAUAUGAUGCGAAUAAAGAAAGAAGAAAGCAUCAGAAGGCACAUAUG [Mod of Disincluded 3 (little more stable fmn state)] | 234 | 39.5
10 | AAAAAACAUGAGGAUCACCCAUGUGAGGAUAUGCAAAACCCAUAUAAAAAGGGAAAAAGUAGAAGGCGCAAAAA [wbt round 1 mod 9] | 17.4 | 20.5
11 | AAAAAACAUGAGGAUCACCCAUGUGAGGAUAUGCAGCGAAUAAAGAAAGAAGAAAGCAGCAGAAGGCACACCAA [Amethyst 78] | 44.1 | 26.4
12 | AAAAAACAUGAGGAUCACCCAUGUGAGGAUAUGCUAUGGAAAUAAAAAAUAAAACAUAGCAGAAGGCACACCAA [Mat - Exclusion 1 - Eli mod - D44] | 42.9 | 31
13 | AAAAAACAUGAGGAUCACCCAUGUGAGGAUAUGUACGAAAUAAAAUAAAAAUAAAAGUACAGAAGGCACAAAAA [Mat - Exclusion 1 - Eli mod - D4] | 46.6 | 40.2
14 | AAAAAACAUGAGGAUCACCCAUGUGAGGAUAUUGGUAUUCAAGAAACCCUCUUAAUAGCGAGAAGGCGCAAAAA [Brourd 613 Mod 18 - Jieux - Exclusion 1] | 19.8 | 22.2
15 | AAAAAGAGAGGAUAUACAUGAGGAUCACCCAUGUGACAUUAAAUAAAUAAAAUAAAGUGUAGAAGGCUCAAAAA [65%, Moding Exclusion3-cac2, 23] | 136 | 38.1
16 | AAAAAGGCAGGAUAUACAUGAGGAUCACCCAUGUGAAAAAAAAAAAAAAAAAAAAAGUGUAGAAGGGUCAAAAA [Exclusion 3 - Omei 2] | 51.4 | 51.7
17 | AAAAAGGCAGGAUAUACGAGUCAAAGAAAAGACAAAAAGGGACAUGAGGAUCACCCAUGUAGAAGGGCCAAAAA [Fiskers exclusion D2 62% 4] | 193 | 51.6
18 | AAAAAGGGAGGAUAUACAGGAGGUAAGGAAAAAAAAAAAAAACAUGAGGAUCACCCAUGUAGAAGGCUUAAAAA [Ecls2-IV] | 22 | 30.3
19 | AAAAAGGGAGGAUAUACAUGAGGAUCACCCAUGUAAAAAAACGCGGGAGGGAGGGAAGGUAGAAGGCCCAAAAA [Excls3-IV] | 23 | 20.3
20 | AAAAAGGUAGGAUAUACAUGAGGAUCACCCAUGUGAAAGAAAAAUAAGAAAAGAAAGAGUAGAAGGACCAAAAA [JL JSci Mod] | 30.6 | 31

Row | Sequence | apparent KD of MS2 coat protein [1] [nM] | apparent KD of MS2 coat protein [2] [nM]
21 | AAAAAGUAAGGAUAUAGCAAAGGUCACGAAAGUGACAAAGGCUAGAAGGUACAUGAGGAUCACCCAUGUCCAAA [Fiskers Exclusion 4 D2 63% 3] | 17.7 | 19.9
22 | AAAAAGUCAGGAUAUACGUACAUGUCAAAAGACGUGAAGGGACAUGAGGAUCACCCAUGUAGAAGGGACAAGAA [JL Stem Breaker 21] | 49.6 | 106
23 | AAAAAGUCAGGAUAUAUAGGAAAAAUAAAAAAAAUAAAACUAUAGAAGGGACAUGAGGAUCACCCAUGUUAAAA [Ex 4 May 15] | 22.9 | 45.4
24 | AAAAAGUCAGGAUAUAUCAAAAAAAAAGAAAAAAAAAAAAGAUAGAAGGGACAUGAGGAUCACCCAUGUAAAAA [water's exclusion 4 last] | 34.2 | 74.3
25 | AAAAAGUCAGGAUAUGCGAAGGCGUCUGAUAGACGAGGCUAGCAGAAGGGACAUGAGGAUCACCCAUGUGAAGA [Mat - Exclusion 4 - Eli mod - D84] | 97.5 | 49.8
26 | AAAAAGUCAGGAUAUGUCAAAGGUCACGAAAGUGACAAAGGACAGAAGGGACAUGAGGAUCACCCAUGUAGGAA [Fiskers Exclusion 4D1 65% - Late G segment 2] | 68.5 | 55.5
27 | AAAAAGUCAGGAUAUGUGAAAAAAAAAAAAAAAAAAAAAAAACAGAAGGGACAUGAGGAUCACCCAUGUAAAAA [water's exclusion 4 2nd] | 46.4 | 60
28 | AAAAAGUCAGGAUAUUCGGAAGGGAAAGCGCAAACCCAACCGAAGAAGGGACAUGAGGAUCACCCAUGUGGAAA [Ecls4-III 65% - Late G segment 1] | 88.9 | 79
29 | AAAAAGUGAGGAUAUACGCUGAAGAGUAGACACAACCAGGCGUAGAAGGCACAUGAGGAUCACCCAUGUACAAA [Ex4 Malc#9] | 26.1 | 28.6
30 | AAAAAGUGAGGAUAUACGCUGAAGAGUAGACACAACCAGGCGUAGAAGGCACAUGAGGAUCACCCAUGUCCAAA [Ex4 Malc#10] | 41.2 | 21.2
31 | AAAAAGUGAGGAUAUAGCAAAGGUCACGAAAGUGACAAAGGCUAGAAGGCACAUGAGGAUCACCCAUGUCCAAA [Fiskers Exclusion 4 D2 63% 2] | 55.6 | 24.7
32 | AAAAAGUGAGGAUAUAUAUGAAACAAAAAGAAAAAAAAAAAACAUGAGGAUCACCCAUGUAGAAGGCGCAAAAA ['Exclusion 2' Lab] | 21.5 | 27.1
33 | AAAAAGUGAGGAUAUGCGAAGGCGUCUGAUAGACGAGGCUAGCAGAAGGCACAUGAGGAUCACCCAUGUGGGAG [Mat - Exclusion 4 - Eli mod - D93] | 148 | 71.5
34 | AAAAAUCGAGGAUAUACAUGAGGAUCACCCAUGUCAGAAAAUGACUACACAAAAGAAAGUAGAAGGCGAUAAAA [Ex 3 May 18] | 30.3 | 29.4
35 | AAAAAUGGAGGAUAUACAUGAGGAUCACCCAUGUGUAACUAAACAAAACACAAAAAAAGUAGAAGGCCAAAAAA [Gilly Gone Silly 6 - Jieux - Exclusion 3] | 17.1 | 14.5
36 | AAAAAUGGAGGAUAUACAUGAGGAUCACCCAUGUGUAACUAUACUAAGCACACCUCACGUAGAAGGCCAAAAAA [Gilly Gone Silly 12 - Jieux - Exclusion 3] | 321 | 105
37 | AAAAAUGGAGGAUAUACAUGAGGAUCACCCAUGUGUGGCCAUACUAUGUGGGCGUCAGGUAGAAGGCCAAAAAA [Gilly Gone Silly 24 - Jieux - Exclusion 3] | 56 | 22.3
38 | AAAAAUGGAGGAUAUACGAACAUGUCAAAAGACGUGAAGGGACAUGAGGAUCACCCAUGUAGAAGGCUAAAAAA [JL Stem Breaker 3] | 40.3 | 87.1
39 | AAAACGGCAGGAUAUACAGAAGAGAUCACGAAAAAAAAAAAACAUGAGGAUCACCCAUGUAGAAGGGCCAAAAA [Ex2 Malc#4] | 66.3 | 117
